How the values were obtained:
Assay in all cases: purified protein
Conditions in all cases: 10 mM HEPES pH 7.5, 200 mM NaCl, 15 µM ZnSO4, 50 µg/mL BSA, 30°C
[1] = system: CC(C)(O/N=C(\C(=O)N[C@@H]1C(=O)N2C(C(=O)[O-])=C(C[n+]3ccccc3)CS[C@H]12)c1csc(N)n1)C(=O)O
[2] = system: CCN1CCN(C(=O)N[C@@H](C(=O)N[C@@H]2C(=O)N3[C@@H]2SC(C)(C)[C@@H]3C(=O)O)c2ccccc2)C(=O)C1=O
[3] = system: CO/N=C(\C(=O)N[C@@H]1C(=O)N2C(C(=O)O)=C(COC(C)=O)CS[C@H]12)c1csc(N)n1
[4] = system: CO/N=C(\C(=O)N[C@@H]1C(=O)N2C(C(=O)[O-])=C(C[N+]3(C)CCCC3)CS[C@H]12)c1csc(N)n1
[5] = system: C[C@@H](O)[C@H]1C(=O)N2C(C(=O)O)=C(SCCN=CN)C[C@H]12

| Substance | Km [1] | kcat [1] [s⁻¹] | kcat/Km [1] [M⁻¹ s⁻¹] | Km [2] | kcat [2] [s⁻¹] | kcat/Km [2] [M⁻¹ s⁻¹] | Km [3] [µM] | kcat [3] [s⁻¹] | kcat/Km [3] [M⁻¹ s⁻¹] | Km [4] [µM] | kcat [4] [s⁻¹] | kcat/Km [4] [M⁻¹ s⁻¹] | Km [5] | kcat [5] [s⁻¹] | kcat/Km [5] [M⁻¹ s⁻¹] |
| --- | --- | --- | --- | --- | --- | --- | --- | --- | --- | --- | --- | --- | --- | --- | --- |
| CIM-2 (Chryseobacterium indologenes) | 2,000 ± 300 µM | 380 ± 50 | 180000 ± 50000 | 2,400 ± 500 µM | 48 ± 7 | 20000 ± 7000 | 180 ± 20 | 820 ± 30 | 4.7e+06 ± 700000 | 700 ± 200 | 28 ± 5 | 40000 ± 20000 | 2,300 ± 300 µM | 2000 ± 200 | 900000 ± 200000 |
| CJO-1 (Chryseobacterium joostei) | 1,000 ± 400 µM | 110 ± 30 | 100000 ± 60000 | 1,900 ± 300 µM | 30 ± 4 | 16000 ± 5000 | 126 ± 4 | 528 ± 6 | 4.2e+06 ± 200000 | 440 ± 60 | 19 ± 2 | 43000 ± 9000 | 2,700 ± 500 µM | 280 ± 40 | 100000 ± 30000 |

Source: PMC12326980
